From US20120301472A1 (DUKE UNIVERSITY, published 2012) come the findings set out here.

Test [1] has as its target T1, native human CD22 (hCD22) (human, UniProt P20273 20-847).
T1 construct: On Raji and Ramos Burkitt lymphoma cells (Scatchard analysis, flow cytometry) and on mouse L cells transfected with full-length CD22 cDNA (hybridoma screen)
Description: hybridoma screen on CD22-transfected mouse L cells. The text has this: Monoclonal antibodies (mAbs) HB22-7 (IgG2b), HB22-23 (IgG2a), HB22-33 (IgM), HB22-5 (IgG2a), HB22-13 (IgG2a), HB22-22 (IgA), and HB22-196 were produced according to the method of Engel et al., J Immunol 15:4710 (1993) and U.S. Pat. No. 5,484,892. See, also Tuscano et al, Blood 94:1382-1392 (1999). However, other methods may be used. Briefly, the HB22 mAbs were produced via hybridoma techniques using a mouse pre-B cell line 300.19, stably transfected with full length CD22 cDNA, as the immunogen. More specifically, thirty-three mAbs reactive with CD22 were generated by the fusion of NS-1 myeloma cell with spleen cells from Balb/c mice immunized three times with a mouse pre-B cell line, 300.19, stably transfected with a full-length CD22 cDNA. Hybridomas producing mAb reactive with mouse L cells transfected with CD22 cDNA, but not with untransfected cells, were cloned twice and used to generate supernatant or ascites fluid. mAb isotypes were determined using the Mouse Monoclonal Antibody Isotyping Kit (Amersham, Arlington Heights, Ill.). IgGmAb were purified using the Affi-Gel Protein A MAPS II Kit (Bio-Rad, Richmond, Calif.).

Test [2] deals with T1, native human CD22 (hCD22). Description: Scatchard analysis, Raji against Ramos cells. How it is done: Cell lines and Scatchard Analysis. Raji and Ramos Burkitt lymphoma, cell lines were purchased from American Type Culture Collection (ATCC, Manassas, Va.). Both cell lines stained for CD22 expression by flow cytometric methods utilizing the HB22-7 mAb, as described previously (Tuscano et al., supra). The cell lines were maintained in RPMI 1640 supplemented with 10% fetal calf serum at 0.5 times. 10⁶ cells/ml. A Scatchard analysis using Raji and Ramos cells was performed as described previously (Scatchard, G., Ann. of NY Acad Sci. 51:660 (1947)). Briefly, HB22-7 was labeled with ¹²⁵ I by the chloramine T method (specific activity of […]). A competitive binding assay was performed utilizing serially diluted, unlabeled HB22-7.
Scatchard analysis was utilized to assess the binding affinity of HB22-7 and the number of CD22 receptors on Ramos and Raji cells. The cells were assayed for maximum, binding percentage (Bmax), disassociation constant (Ka) and number of antibodies bound per cell. The results shown in Table 1 are the average of two experiments.

T1 sequence (P20273 other isoform, or with tags, fused parts or gaps limits assumed): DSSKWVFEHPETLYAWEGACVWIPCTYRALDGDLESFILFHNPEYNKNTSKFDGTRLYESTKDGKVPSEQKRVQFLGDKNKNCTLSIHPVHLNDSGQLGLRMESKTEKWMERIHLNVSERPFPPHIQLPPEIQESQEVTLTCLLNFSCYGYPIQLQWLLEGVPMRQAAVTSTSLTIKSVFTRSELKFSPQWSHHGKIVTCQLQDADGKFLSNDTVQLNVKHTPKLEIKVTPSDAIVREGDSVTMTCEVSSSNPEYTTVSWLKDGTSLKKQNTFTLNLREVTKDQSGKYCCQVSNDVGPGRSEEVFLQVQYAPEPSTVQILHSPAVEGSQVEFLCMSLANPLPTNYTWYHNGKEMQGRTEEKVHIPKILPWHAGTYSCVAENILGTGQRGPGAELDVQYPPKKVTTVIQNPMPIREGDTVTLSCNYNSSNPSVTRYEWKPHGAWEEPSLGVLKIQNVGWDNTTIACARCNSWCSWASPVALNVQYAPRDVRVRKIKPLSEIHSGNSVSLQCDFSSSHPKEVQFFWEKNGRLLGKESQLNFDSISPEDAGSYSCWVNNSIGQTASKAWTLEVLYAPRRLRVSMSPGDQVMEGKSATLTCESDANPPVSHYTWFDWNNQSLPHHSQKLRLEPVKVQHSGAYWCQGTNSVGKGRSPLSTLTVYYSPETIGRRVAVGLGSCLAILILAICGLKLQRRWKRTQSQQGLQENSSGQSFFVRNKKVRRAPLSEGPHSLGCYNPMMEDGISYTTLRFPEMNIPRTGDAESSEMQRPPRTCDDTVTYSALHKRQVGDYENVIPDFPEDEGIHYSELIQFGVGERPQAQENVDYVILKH

B1: anti-CD22 monoclonal antibody HB22-33 (antibody, V domains shown)
VH: EVQLQESGPGLVKPSQSLSLTCSVTGYSITSGYYWNWIRQFPGNKLEWMGYIRYDGSNNYNPSLKNRISITRDTSKNQFFLKLNSVTTEDTATYYCARGGITVAMDYWGQGTSVTVSS
VL: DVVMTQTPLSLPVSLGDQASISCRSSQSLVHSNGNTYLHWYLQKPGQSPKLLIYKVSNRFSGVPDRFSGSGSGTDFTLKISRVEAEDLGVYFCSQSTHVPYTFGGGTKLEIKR
In the case of B1, the binding result in test [1] is “binds”.

B2: anti-CD22 monoclonal antibody HB22-5 (antibody, V domains shown)
VH: EVQLQESGPELVKPGASMKISCKASGYSFTDYTMNWVKQSHGKNLEWIGLLHPFNGGTSYNQKFKGKATLSVDKSSSTAFMELLSLTSEDSAVYFCARGTGRNYAMDYWGQGTSVTVSS
VL: SIVMTQTPKFLLVSTGDRVTITCKASQTVTNDLAWYQQKPGQSPKLLIYYASNRYTGVPDRFTGSGYGTDFTFTINTVQAEDLAVYFCQQDYSSPLTFGAGTKLELKR
For B2, the binding result in test [1] is reported as “binds”.

B3: anti-CD22 monoclonal antibody HB22-13 (antibody, V domains shown)
VH: EVQLQESGGGLVQPGGSLRLSCATSGFTFIDYYMNWVRQPPGKALEWLGFIKNKFNGYTTEYNTSVKGRFTISRDNSQSILYLQMNTLRAEDSATYYCARGLGRSYAMDYWGQGTSVTVSS
VL: SIVMTQTPKFLLVSAGDRVSITCKASQSVTNDVTWYQQKPGQSPKLLIYFASNRYTGVPDRFTGSGYGTDFTFTISTVQAEDLAVYFCQQDYSSPLTFGAGTKLELKR
In the case of B3, the binding result in test [1] is on record as “binds”.

B4: anti-CD22 monoclonal antibody HB22-7 (antibody, V domains shown)
VH: EVQLQESGPGLVAPSQSLSITCTVSGFSLSDYGVNWVRQIPGKGLEWLGIIWGDGRTDYNSALKSRLNISKDNSKSQVFLKMNSLKADDTARYYCARAPGNRAMEYWGQGTSVTVSS
VL: SIVMTQTPKFLLVSAGDRITLTCKASQSVTNDVAWYQQKPGQSPKLLIYYASNRYTGVPDRFTGSGYGTDFTFTISTVQAEDLAVYFCQQDYRSPWTFGGGTKLEIKR
notes: Labelled with 125I for the Scatchard assay; also called HB11347; anti-CD22 mAb
As for B4, in test [2], the “fold increase in Ka, Raji cells versus Ramos cells” value was found to be 2 fold; the “fold increase in antibodies bound per cell and Bmax, Raji cells versus Ramos cells” value was around 2.5 fold.
